US10174359

Assays:
[1] = tested on: separase sensor, wild-type Scc1 (142-467), histone H2B localization-targeting sequence
cyclin B1-cdk1 complex = cyclin B1-cdk1 complex (UniProt P14635)
Sequence of cyclin B1-cdk1 complex (P14635 whole entry, looked up, one chain of several): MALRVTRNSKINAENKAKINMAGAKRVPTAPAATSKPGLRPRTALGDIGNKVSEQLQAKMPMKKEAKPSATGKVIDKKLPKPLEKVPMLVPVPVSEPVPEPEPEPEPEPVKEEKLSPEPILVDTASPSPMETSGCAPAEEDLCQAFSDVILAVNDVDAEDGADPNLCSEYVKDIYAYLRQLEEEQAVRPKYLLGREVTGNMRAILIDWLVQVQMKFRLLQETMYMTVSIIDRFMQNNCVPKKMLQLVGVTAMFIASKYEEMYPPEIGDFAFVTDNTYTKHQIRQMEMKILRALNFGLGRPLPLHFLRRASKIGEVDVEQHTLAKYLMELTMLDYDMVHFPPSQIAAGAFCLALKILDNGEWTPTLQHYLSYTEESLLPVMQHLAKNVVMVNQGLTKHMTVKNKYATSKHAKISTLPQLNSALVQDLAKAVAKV

Row | Substance | cleavage of the sensor (immunoblot with anti-GFP antibody, FIG. 2D) [1] | cdk1 activity (histone H1 kinase assay) (cyclin B1-cdk1 complex) | kinase activity (histone H1 as a substrate) (cyclin B1-cdk1 complex)
1 | separase | The separase sensor localized in chromosome in the cells in anaphase is cleaved | – | –
2 | myc-tagged mouse separase, wild-type (WT) | – | cdk1 activity was markedly inhibited in the separase-bound fraction | in the separase-bound fraction, kinase activity is inhibited (separase-bound cyclin B1-cdk1)
